Source: the supplement of paper PMC10724198
± gives the standard deviation of the averaged measurements.

test system: Saccharomyces cerevisiae; assay: protein stability index of tFT-peptide fusion (C-terminal peptide) (PSI (0-1 scale)); higher = more stable (slower turnover); conditions: genetic background: wild type; temperature: 30 C
Description: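 Multiplexed protein stability (MPS) profiling in S. cerevisiae. Random 12-aa peptides (tFT-X12 library) are fused to the C-terminus of a sfGFP-mCherry tandem fluorescent timer, after mCherry and a GGGS linker. Cells are FACS-sorted into 8 mCherry/sfGFP bins and deep-sequenced. The protein stability index (PSI) is the read-weighted bin average, scaled from 0 (unstable) to 1 (stable). Only peptides with >10 reads are reported; cells were grown at 30 °C in SC-His with glucose.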
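Note: PSI is a weighted mean of sequencing reads over stability bins, variants kept only with over 10 reads, mCherry proximal and sfGFP distal, peptide attached via GGGS linker.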

Sequence | protein stability index
RCHIPGRIVKTR | 0.628 ± 0.046
FPLSFLLDLLLV | 0.509 ± 0.013
FFRFLLPFLPPS | 0.70866 ± 0.0006
GCRGEWGWVGRG | 0.691 ± 0.017
GVCASGAGSVGG | 0.662 ± 0.029
IVGAVMMGGRTM | 0.68 ± 0.013
PPPHPLLRPSPS | 0.737 ± 0.011
TPVLATAPQGQS | 0.71 ± 0.063
RDTAPPPPPALL | 0.788 ± 0.08
NGPDAKTIEVRQ | 0.658 ± 0.048
SPPRLPTPPPLR | 0.705 ± 0.022
AYCGLEGFLGLG | 0.688 ± 0.051
PLCPPPPTSPPP | 0.666 ± 0.031
SPCRAGRPAGLR | 0.729 ± 0.071
ISFTDPSMGTLG | 0.608 ± 0.11
SGWRYPFGCGAS | 0.763 ± 0.1
EPTLLVRMVANR | 0.529 ± 0.026
YEACQTGASICR | 0.7125 ± 0.0013
GSQCPVLEQQRD | 0.655 ± 0.018
NIHKNKKKGLKE | 0.686 ± 0.0088
NIKKLSHRTRRI | 0.857 ± 0.2
VPSLFLYGNPMY | 0.71 ± 0.036
EKKKKIKNKESI | 0.6932 ± 0.0036
MWPCRVRWLDHW | 0.73 ± 0.034
LSPAPPHRYSPY | 0.7 ± 0.043

Sequence | protein stability index
KRGKNKKYKNRF | 0.638 ± 0.074
SLMLPIFLPLSR | 0.698 ± 0.04
GFGSEGQDMVGL | 0.6658 ± 0.0027
QSPPRHPSPTAS | 0.683 ± 0.082
EKNRRCQKRKKK | 0.726 ± 0.054
SSSVPFRRYTHD | 0.711 ± 0.017
VPVAAVGGGECG | 0.575 ± 0.044
TSYRNNKAKNQS | 0.756 ± 0.01
LAPLTLLSPLPR | 0.677 ± 0.034
RIKKTRVVRQKM | 0.547 ± 0.04
LLSSATPSKFPS | 0.836 ± 0.021
RSTFSGSSTLVY | 0.568 ± 0.0084
ARLSHLQSLRFI | 0.5476 ± 0.0012
PGSSLAPAPPPP | 0.683 ± 0.0088
MYASVGAIHPRL | 0.738 ± 0.074
QSGQSELRVVPP | 0.72 ± 0.021
KRRRYKEKPRKR | 0.665 ± 0.12
LRLLPRIVSPSV | 0.6 ± 0.022
LPLPPPPPCCSF | 0.701 ± 0.015
PLFSLVSLLLPI | 0.628 ± 0.036
PSLPPPPPPPSP | 0.614 ± 0.082
VVCRDGLSSCVG | 0.623 ± 0.019
PPHNTPLAPSQY | 0.659 ± 0.0094
HTRSPVPPPPPS | 0.657 ± 0.0019
VFCPSPGPLAFA | 0.673 ± 0.072

Sequence | protein stability index
PRPPLRATASVV | 0.699 ± 0.033
RPPPPPHRTGDC | 0.607 ± 0.02
KRKHHKREKKKK | 0.677 ± 0.042
SFMVISSGSSVR | 0.725 ± 0.023
GPVQWSLLGGSW | 0.65 ± 0.012
GVCQSEKSARGI | 0.664 ± 0.05
SEWFETRNPMSI | 0.685 ± 0.096
FVRPPHTTHPHP | 0.681 ± 0.041
GYLEGMVYRESD | 0.689 ± 0.025
KGDMSCWPSRPI | 0.7137 ± 0.00075
GWDCKGNDCWNG | 0.693 ± 0.055
SCRKGLSPRPPS | 0.7 ± 0.007
PPLPFPPLPPSP | 0.74 ± 0.063
PAVCIPLPARQL | 0.743 ± 0.026
QMKKDIKPRPGE | 0.704 ± 0.037
PPPPVPPPPSSL | 0.749 ± 0.037
GFVRGDRSGGGG | 0.72 ± 0.0085
SPASPPPPSPLL | 0.695 ± 0.028
LPRFTPPLPPPL | 0.734 ± 0.0096
AILHFTVSPRVY | 0.561 ± 0.0097
ARRIEGADAERG | 0.668 ± 0.048
GGNGIVPVWMNF | 0.695 ± 0.041
HSTSLLPSGSWF | 0.734 ± 0.016
SRWDPLYVPWRM | 0.696 ± 0.014
HPNPYTTPGTPA | 0.625 ± 0.0078

Sequence | protein stability index
APPPRATLPRPP | 0.673 ± 0.055
MGVCLGPPTVWR | 0.684 ± 0.043
PRSAPPVPPIYP | 0.6502 ± 0.0053
RGGSGGSCMRYV | 0.678 ± 0.066
CSLSLPAFSAPS | 0.669 ± 0.04
SAFGGAGVLGHR | 0.6799 ± 0.0027
PSPSPPRSPALS | 0.713 ± 0.056
LLLVGGVSSWTV | 0.67 ± 0.014
KENYGIKTKDRK | 0.696 ± 0.075
FCWRDIICAFFR | 0.72 ± 0.019
LFPAIWPRVLSW | 0.566 ± 0.02
PPPPSLPPSFPS | 0.67 ± 0.072
GWSVDGVVLGAP | 0.728 ± 0.046
EKKEHNHKVKYN | 0.626 ± 0.026
RKVHNVETQITA | 0.648 ± 0.018
EWGEEDRDGNGR | 0.721 ± 0.053
LAGISSNRHLRR | 0.753 ± 0.067
VREGKDREVSGF | 0.715 ± 0.031
RGVALWALYGAG | 0.76502 ± 0.00052
AGCVVGWGAWVL | 0.7035 ± 0.0064
PPPPPRPPAGFL | 0.924 ± 0.095
GGGGGSSWVGYG | 0.8981 ± 0.0027
TRDVLWHCWVLS | 0.514 ± 0.08
PPPRFRPLPLRA | 0.5935 ± 0.0019
PPPLLTSSPPPR | 0.712 ± 0.025

Sequence | protein stability index
FRLDRYLGGKIG | 0.641 ± 0.063
PFPFSPPHSLVS | 0.743 ± 0.027
PGPPPGTDAFQH | 0.718 ± 0.12
YGSRWRPYLGFR | 0.669 ± 0.028
SPKDKARMQKQS | 0.602 ± 0.063
TQTLLQRTYREG | 0.722 ± 0.09
IESASRSTTGGI | 0.77 ± 0.14
SDFGSFRFRSIV | 0.5773 ± 0.0018
STFYSALRVGTR | 0.668 ± 0.019
NFGLYGAPFTLG | 0.665 ± 0.041
GKEIHREIIVTV | 0.618 ± 0.014
KHLIHSRLGICG | 0.6634 ± 0.0059
GEKREGRKTRRD | 0.608 ± 0.046
KLPILDKKAVAQ | 0.696 ± 0.03
LLPLPCPPFPHS | 0.674 ± 0.024
LWPYSRYSFSPP | 0.726 ± 0.02
LFPRCYFARIVV | 0.484 ± 0.033
KLEERIKRTEDK | 0.7219 ± 0.0018
VCLGRSEETLSS | 0.608 ± 0.15
TETFARTATRRP | 0.587 ± 0.022
ELINQENQPAYE | 0.671 ± 0.038
LSTPSLFTPFRA | 0.715 ± 0.024
PLTFGLGPVNLP | 0.683 ± 0.054
WGRGAVGPLLGV | 0.632 ± 0.016
KAYGSCRSLAWF | 0.712 ± 0.061

Sequence | protein stability index
RSQICWFFFQCI | 0.53 ± 0.036
IRKKIRKKTIYK | 0.798 ± 0.034
ISFGSVFSGFFH | 0.7354 ± 0.0014
VAGGGVAMVGSA | 0.619 ± 0.069
LLAPSPPPPLPP | 0.61 ± 0.13
VFGKGRWDCFLI | 0.727 ± 0.073
KRAREKDGKSAD | 0.676 ± 0.032
PADLCPPGSLSP | 0.683 ± 0.01
RGTWAVGGGRGG | 0.671 ± 0.065
PPLLPLCVPPPP | 0.71 ± 0.033
RVNTFHANKWRW | 0.7134 ± 0.0013
KRGFSLKEARGF | 0.642 ± 0.008
IKNEKKKEIELN | 0.639 ± 0.0065
PTVPLSSVVRDA | 0.746 ± 0.051
RGGGVWGKEDSQ | 0.717 ± 0.052
TTSKQHRPKQMN | 0.708 ± 0.23
PPVLPVGLPPTP | 0.684 ± 0.035
SGIILEKGGGGN | 0.679 ± 0.026
PCWPARVWVSFL | 0.504 ± 0.013
GEGERVCVGSEF | 0.745 ± 0.033
YSDFLICGIGSY | 0.775 ± 0.037
YFPSSTLPPPVP | 0.675 ± 0.029
PFYTNSSFCSLT | 0.6677 ± 0.00075
SRISQSMRFPIK | 0.691 ± 0.027
PHASRRPPTLLC | 0.514 ± 0.01

Sequence | protein stability index
FFSVCLVFGLPG | 0.543 ± 0.013
GSGALGAGRASR | 0.723 ± 0.017
LRSVNVLAALFS | 0.686 ± 0.043
CPRPHVLPLAYF | 0.646 ± 0.014
WFDVVALPCLSF | 0.562 ± 0.0084
VAGFYCQKWFSI | 0.657 ± 0.08
TDGVVRPQRQAT | 0.69 ± 0.0093
VYEGLRSGPRSL | 0.718 ± 0.093
MCVGGGCGRGGA | 0.719 ± 0.14
QVVEANNPALSF | 0.647 ± 0.02
QDISESLLRLLR | 0.7119 ± 0.0019
TWARRAHALRCR | 0.493 ± 0.015
KQAPTLFLSFIL | 0.5885 ± 0.0028
IGCFVEFLYGVW | 0.593 ± 0.023
LIAVASSGWKQS | 0.7145 ± 0.0023
HQSSHTRMARSL | 0.723 ± 0.013
VRRMLSSLIEGH | 0.619 ± 0.0072
VRSYLARFEVYV | 0.531 ± 0.019
PPRQPACAFLPS | 0.653 ± 0.09
SPTPPTAPPSPL | 0.699 ± 0.015
VRHSPVVPANRP | 0.698 ± 0.094
YTRILRKKLINK | 0.711 ± 0.11
PPSIFELFPSPP | 0.7122 ± 0.0051
ARLSNLPPSPPR | 0.678 ± 0.032
SVAPRLFSPSHP | 0.6548 ± 0.0055

Sequence | protein stability index
PIPPSTRSLHPL | 0.668 ± 0.027
GAGKGWARWLVW | 0.632 ± 0.041
TGLRLFRPLSLP | 0.776 ± 0.069
QSRPRNMFRVIS | 0.5469 ± 0.0045
MDDIAAYTGSCT | 0.661 ± 0.032
PPSPPLRPPSLC | 0.704 ± 0.024
DRGSGRFVRGGL | 0.664 ± 0.083
DREKGGLREADQ | 0.669 ± 0.035
PSLSPPVHALLF | 0.722 ± 0.013
NRRVSGPLCMQE | 0.687 ± 0.054
VPSVGFSVHLLP | 0.692 ± 0.021
GIVRGCGGGGEE | 0.6922 ± 0.0049
VVSGDAPVARRA | 0.6781 ± 0.0056
TVVTIGAHIGPR | 0.78 ± 0.048
ACRSGTRFAGIW | 0.703 ± 0.016
YRPFQAPPLVLF | 0.6379 ± 0.0026
KKKKKRKKEEKH | 0.721 ± 0.032
YRGNLVTDGYGA | 0.685 ± 0.019
EERNNQRKKRKG | 0.709 ± 0.038
CFGYRGAPFCGQ | 0.669 ± 0.063
PPPHPPHSALPS | 0.762 ± 0.021
